Results from US8450280B2, “Activation of peptide prodrugs by hK2” (GenbSpera, Inc., priority 1999, dated 2013).

Columns and labels:
Test in all cases: Kinetic constants of AMC substrate hydrolysis by hK2
Assay type in all cases: biochemical, human
Conditions in all cases: other: 50 mM Tris pH 7.5, 0.1 M NaCl, 0.2% BSA, 37° C., Lineweaver-Burk
[1] = tested on: T1, Cc1cc(=O)oc2cc(NC(=O)[C@H](CCCNC(=N)N)NC(=O)[C@@H]3CCCN3C(=O)[C@@H](NC(=O)OC(C)(C)C)C(C)C)ccc12
T1 construct: made in house
Method: (§1) The measurements were done with Fluoroscan II (Labsystems, Helsinki, Finland) using a 355 nm excitation filter and a 460 nm emission filter. The fluorescence of 7-amino-4-methylcoumarin (AMC) (Sigma, St. Louis, Mo., USA) was determined to be 700 FIU/nmol and this value was used in the calculations of the rate of product formation. Unless otherwise indicated all final analyses were performed in 200 μl of the buffer 50 mM Tris pH 7.5, 0.1 M NaCl, and 0.2% BSA at 37° C. using 1.6 pmol hK2. BSA was added to the reaction mixture in order to minimize adsorption of the enzyme to the walls of the microtiter wells. The amount of hK2 was quantified by a commercial PSA immunoassay (Prostatus, Wallac, Turku, Finland) with the Mabs H1 17 and H50 which recognize PSA and hK2 equally well (Lovgren et al., Biochem. Biophys. Res. Co., 213, 888-895 (1995)). Under the conditions described, 1.6 pmol of the hK2 preparation cleaved 50 pmol/min of the 100 μM substrate Pro-Phe-Arg-AMC (SEQ ID NO: 55). During the 20 minute measurement time the consumption of the substrates is <7% of their total amount and was not considered to affect the reaction rate. Initial analysis of the substrates were performed with 3.2 pmol hK2 at a substrate concentration of 250 μM. Km value for the substrates cleaved by hK2 at these conditions were determined using at least four substrate concentrations ranging from 0.2×Km to 5×Km. The Km and kcat values were calculated from Lineweaver-Burk plots.
(§2) Substrates ending in either arginine or lysine were tested. […] However, no hydrolysis of Arg-Gln-Arg-Arg-AMC (SEQ ID NO: 63) was detected. […] As with the semenogelins, hK2 also here cleaves substrates with Arg at position P1 and preferentially a large residue or another Arg at position P2. None of the substrates with lysine in the C-terminal position were cleaved.
(§3) The activity listed in Table 1 is hydrolytic activity of hK2 with 100 μM substrate in relation to the hydrolytic activity of hK2 with 100 μM of the tissue kallikrein substrate H-Pro-Phe-Arg-AMC (SEQ ID NO: 55). The entry “NR” means that no reaction was detected.

[2] = tested on: T2, Cc1cc(=O)oc2cc(NC(=O)[C@H](CCCNC(=N)N)NC(=O)[C@H](CC(C)C)NC(=O)[C@H](CC(C)C)NC(=O)OCc3ccccc3)ccc12
T2 construct: made in house
Method: as §1, §2, §3

[3] = tested on: T3, Cc1cc(=O)oc2cc(NC(=O)[C@H](CCCNC(=N)N)NC(=O)[C@H](CCCNC(=N)N)NC(=O)[C@H](C)NC(=O)OCc3ccccc3)ccc12
T3 construct: made in house
Method: as §1, §2, §3

[4] = tested on: T4, Cc1cc(=O)oc2cc(NC(=O)[C@H](CCCNC(=N)N)NC(=O)[C@H](Cc3ccccc3)NC(=O)[C@@H]3CCCN3)ccc12
T4 construct: made in house
Method: as §1, §2, §3

## recombinant hK2 (Homo sapiens)
[1]
  Km: 48 µM
  kcat: 0.0267 s⁻¹
  kcat/Km: 567 M⁻¹ s⁻¹
[2]
  Km: 71 µM
  kcat: 0.04 s⁻¹
  kcat/Km: 567 M⁻¹ s⁻¹
[3]
  Km: 20 µM
  kcat: 0.12 s⁻¹
  kcat/Km: 6000 M⁻¹ s⁻¹
[4]
  Km: 40 µM
  kcat: 0.917 s⁻¹
  kcat/Km: 22900 M⁻¹ s⁻¹
